Test results taken from article doi:10.1101/2021.05.11.443686.

Molecular target: ectodomain of the S protein of SARS-CoV-2 B.1.1.7 (S-UK) (SARS-CoV-2) (UniProt P0DTC2)
Test: cryo-EM structure

## ectodomain of the S protein of SARS-CoV-2 B.1.1.7 (S-UK) (from UniProt P0DTC2 14-1208) (domain or fragment)
  stoichiometry N: 3 protomers
